In the DeepSol protein solubility set:

Test: soluble on expression in E. coli; label from the status in PepcDB or PDB records

| Sequence | soluble on expression in E. coli |
| --- | --- |
| MRCPGCGAAIQFDDPKKPGYIPREVFEKRLEEGKEILCQRCFRMKHYGKLEPVEFDWDFKNQLKSYLGGFDVVVWVIDIFDFEGTYREDIAEILKGKRVIYVINKIDLLPRAVTVKEIKEWVKKRIKTKNTDDIRIVSAEKNFGLTSLVKYLSRLTDKALVVGVTNVGKSSLLNKICTHENTISPFPGTTLGILKRKVKEANLYLYDTPGIMTSDRILDLLDPECQKRVLPREELSRKTFKPDNGRTIFMGGLCRFDIHFETEKNPIFLLFSSKEVTFHETRRERADELMRNRLGDLLIPPCSKTKFENFKWKRETFTLKEGEELAVAGLGWMSVRRGPFTVEVTVPDSVKLVVREALVNPKRLEHHHHHH | soluble |
| MRCYAKIHSYQLLFVADVDYDCHHKDKFFRRHCVVAKILPRFDAVLFLDADTGVVNPSRKIEEFLKPGIDITFVNRFCNWEIASGFYLARNTPFAINLLNNFADYESKLPNSFHGTDNGAIHIFLAEKIFPQASIEIGICRRAYEKSTSVEDLILYEACIKALFGVVTDFGKIQILRKGTGWARDGWLTSMVWHPETDFMLHGWKTNALIPTPTDPLVAIEMSMSQWFNPLNGSIDLSKCNSHNSTWNYDARLLGNNEEIQKSLHRIQKENSILQVKAYSDFSKFISL | not soluble |
| MRDLKGIFSALLVSFNEDGTINEKGLRQIIRHNIDKMKVDGLYVGGSTGENFMLSTEEKKEIFRIAKDEAKDQIALIAQVGSVNLKEAVELGKYATELGYDCLSAVTPFYYKFSFPEIKHYYDTIIAETGSNMIVYSIPFLTGVNMGIEQFGELYKNPKVLGVKFTAGDFYLLERLKKAYPNHLIWAGFDEMMLPAASLGVDGAIGSTFNVNGVRARQIFELTKAGKLKEALEIQHVTNDLIEGILANGLYLTIKELLKLEGVDAGYCREPMTSKATAEQVAKAKDLKAKFLS | soluble |
| MRDNPLVSILIPTFNRPMLLEKSLRSAVNQTYKNIEIVICDDSTNYDSKTVVESYMKRYKNIRYYFNNGPLGNFGLNNVKKCYELSKGEYINYLNDDDMFHKSKIMRMIRYFQNYKKITLVTSHRSVIDKNDNILPDINATKRIRYLNRPVSGRIIAKLMFNLGNFIGEPTTVLFKKSDVKNFGSLNGKQYYSLIDAATWFELLSKGYCVYIADTLSYFRIHEGQNTNRPEVSGRFLLEWKDLNDYGYRKKIIDSEFYKRFLLSFKKEYEKPKLEHHHHHH | not soluble |
| MRDSIMQMCELCGKLTDKLYKVIIEGSEMNVCKECAKFGKSPKTYSRLGKKTIIGKGTITTNKQVKKPIKRRRDIFDTLPMLREDYGDVIREAREKRGLSIEELAKKLKMKASTLQKFERYELEPNEKEIKILEKELKISLTESIGEETSYYGGRDEDGFTLGDFIKIKK | not soluble |
| MRDTLVLNASFEPLSTVTLNRAVILVLQDKAVVEQAHPELRMRGAALDIPVPRVIRLCRYVRVPFRRQAPWSRRGVLVRDRHRCAYCGRRATTVDHVVPRAQGGQDSWLNTVASCAEDNHRKAARTPEQAGMPLLRQPFEPTPADAMLLALGQDDFESLPEWLAQPAALEHHHHHH | not soluble |
| MRDTRGGDQGGGLEAQGGAEARNALPPETIVLILPWEPGSRRQPLKAGQVILKWGGYTMPYLVGPKGQVVIAKEIRERLGIRPGWRVIQRLVDDHVELYFLPPPHKASLKGLLRDKIRGTVSEEAWAEARERAWRASWSEEGEG | soluble |
| MREFSRPKVVISRCLEFDHCRYNGDMISSPVVVKLKKHVDFLPVCPEVEIGLGVPRNPVRIVLDKGDHRLVQPSSGKDVTEDMKSFCSNFLDSIYEVDGFILKFRSPSCGLKDVKVYPSAGSHGGAVEKISGYFGGAVLGRYPFHPVEDEGRLRNARIKEHFLTKLFTFAAFRKVKSEGSIKDLINFHAQNKFLLMAYNQAELQKLGEIAANREKRPWKELISDYENHLYSALSRAPRYTSTINVLMHALGFFSDQLSSREKALFFDWVQKYREGRASVCPAINMIRSWIVRFEDGYLMSQTFFEPYPEDLIEINPVESHLREDLWK | not soluble |
| MREKIDALTQNLNRTIVGKTEAIRLVLVALIGGGHALLEDVPGVGKTLLAKSLARSLDGTFQRLQCTPDLLPTDITGTNIWNPKSGEFSFMPGPVFANVVLADEINRATPRTQSALLEVMEEQQVTVDGVSRTVPHPFFVIATQNPVEYQGTFPLPEAQMDRFMLSLSLGYPGVDEELEMLQNLQHGIKVGDLQPCLTLAEVAELRDICSQVKVETVLQQYILELVRATRQDEEITLGVSPRGTVALHKATQALAFLLGRDYAIPDDVKFLAPHVLCHRLIPRGGRSARSIVDRLLRSLPIPLEHHHHHH | soluble |
| MREQISVLTQNLSQTIVGKDEAIRLVLVALLSGGHALLEDVPGVGKTLLAKSLARSINGKFQRVQCTPDLLPTDITGTNIWNPSSREFEFLPGPAFANILLADEINRATPRTQAALLEVMEEKQVTVDGETRLVPHPFFVIATQNPIEYQGTFPLPEAQLDRFALSLSLGYPSEAEELKMLQRQQNPEAIAVGDLESCISLEEVEALQKAVRQVKLTEDLQQYLLRLVRASRTDEDVTLGVSPRGTTALQRATQAFAFLEERDYAIDDDVKFVAPHVLAHRLIPASGKDPKAILQRLLDSVPILEHHHHHH | not soluble |
| MRERRYSSTSPERLAAALFDVAAESGLEGASVREVAKRAGVSIGAVQHHFSTKDEMFAFALRTLVDKLLARLSEVERGGDPARALFAAMSQLLPLDEARSREAHVMAAFAVRAATSPSLAEIRRKTLFTIRTGLSAVLIGIGTPEAETRAALLLATVDGLALDAIGSPALYPPEYLEHALDIQIGMILQGADVVPSSSIELAS | soluble |
| MRGFLFSMAQHFSLSAEARHLSIQVDELSDVEILSLLKTARWGNADNINDIECPHCHVRHEAYFIKTRQQWQCKHCCYRFSITAGTIFHLAKLSLRKILKALRYFALKSKGLSAIELSHEINVQYKTAWGLRHKFREALDKTKDLTPLKDEVHIDGAYTNYYIRPKNFRHKRIDRRKKRYQREDKSCVLVFRQRAANQAQMKGADRSIVALIKEENTQDVLDLTQRLVKQGSTIHTDENPAYDSLQFLYDLWRVNHSQEYCSIEGITNNLAESFFARFRRMIIGVHHKMANRYMLYYANEIAWREDNRLKTDREKLNDVLQRCIKTKPSRHFTGYWQGSKKSPETFGLESINASNDSHYLIAALEHHHHHH | not soluble |
| MRGKAWMLTAVALTGLGLAQIRADGSSTVYPITQAVAEEFVTRNPQVRISVAFSGTGAGFQKFCRGETDVQNASRPIRKSELEACQKAGIQFIEIPVAYDALSILVNRQNTWAQCLTTAQLKSIWEPNAKVNYWKDLNPAWPNRRIVLFGAGTDSGTFDYFTEAIMGRAGSIRKDYFPSEDDNVIMRGVTGNPYAMAFVGFAYYEENKDKVKAVAIDHGKGCVLPSRETVLDGTYQPLSRPLFIYVNVKSLDRPEVQAFVDFYLSPAARRAIRSTGYVELPDEAYRIGQGLVARKKTGSFFTDLPPGTPLAKFIEELRKEVQ | soluble |
| MRGSHHHHHHGSACMKRQGASSERKRARIPSGKAGAANGFLMEVCVDSVESAVNAERGGADRIELCSGLSEGGTTPSMGVLQVVKQSVQIPVFVMIRPRGGDFLYSDREIEVMKADIRLAKLYGADGLVFGALTEDGHIDKELCMSLMAICRPLPVTFHRAFDMVHDPMAALETLLTLGFERVLTSGCDSSALEGLPLIKRLIEQAKGRIVVMPGGGITDRNLQRILEGSGATEFHCSARSTRDSGMKFRNSSVAMGASLSCSEYSLKVTDVTKVRTLNAIAKNILV | soluble |
| MRGSHHHHHHGSMAEKNYVMAIDQGTTSSRAIIFDRNGKKIGSSQKEFPQYFPKSGWVEHNANEIWNSVQSVIAGAFIESGIRPEAIAGIGITNQRETTVVWDKTTGQPIANAIVWQSRQSSPIADQLKVDGHTEMIHEKTGLVIDAYFSATKVRWLLDNIEGAQEKADNGELLFGTIDSWLVWKLTDGQVHVTDYSNASRTMLYNIHKLEWDQEILDLLNIPSSMLPEVKSNSEVYGHTRSYRFYGSEVPIAGMAGDQQAALFGQMAFEKGMIKNTYGTGAFIVMNTGEEPQLSDNDLLTTIGYGINGKVYYALEGSIFVAGSAIQWLRDGLRMIETSPQSEELAAKAKGDNEVYVVPAFTGLGAPYWDSEARGAVFGLTRGTTKEDFVRATLQAVAYQSKDVIDTMKKDSGIDIPLLKVDGGAAKNDLLMQFQADILDIDVQRAANLETTALGAAYLAGLAVGFWKDLDELKSMAEEGQMFTPEMPAEERDNLYEGWKQAVAATQTFKFKAKKEGE | soluble |
